The text below walks through data of the DeepSol protein solubility set.

A short description of the series: soluble on expression in E. coli; label from the status in PepcDB or PDB records.
Take “MSSGLEDNLQLLGGNVTLLEQEAQKLANETKAGVYVVTTDSSTPASQMAKTYLADKVGAKNNGVVLVINMNLRKVYIWATGNLKYYLPSSRIEKTLDIVQPELTDNNYYQAVSGFFDQVSKYYQAGLEHHHHHH”: the “soluble on expression in E. coli” value is reported as “not soluble”.

For the sequence “MSSISLKEIIPPQPSTQRNFTTHLSYDPTTNAIAYPCGKSAFVRCLDDGDSKVPPVVQFTGHGSSVVTTVKFSPIKGSQYLCSGDESGKVIVWGWTFDKESNSVEVNVKSEFQVLAGPISDISWDFEGRRLCVVGEGRDNFGVFISWDSGNSLGEVSGHSQRINACHLKQSRPMRSMTVGDDGSVVFYQGPPFKFSASDRTHHKQGSFVRDVEFSPDSGEFVITVGSDRKISCFDGKSGEFLKYIEDDQEPVQGGIFALSWLDSQKFATVGADATIRVWDVTTSKCVQKWTLDKQQLGNQQVGVVATGNGRIISLSLDGTLNFYELGHDEVLKTISGHNKGITALTVNPLISGSYDGRIMEWSSSSMHQDHSNLIVSLDNSKAQEYSSISWDDTLKVNGITKHEFGSQPKVASANNDGFTAVLTNDDDLLILQSFTGDIIKSVRLNSPGSAVSLSQNYVAVGLEEGNTIQVFKLSDLEVSFDLKTPLRAKPSYISISPSETYIAAGDVMGKILLYDLQSREVKTSRWAFRTSKINAISWKPAEKGANEEEIEEDLVATGSLDTNIFIYSVKRPMKIIKALNAHKDGVNNLLWETPSTLVSSGADACIKRWNVVLE”, the “soluble on expression in E. coli” value is “soluble”.

Turning to “MSSKWITSLFKSVVLTAALVTPFAASAFTEGTDYMVLEKPIPNADKTLIKVFSYACPFCYKYDKAVTGPVSDKVADLVTFTPFHLETKGEYGKQASEVFAVLIAKDKAAGISLFDAKSQFKKAKFAWYAAYHDKKERWSDGKDPAAFIKTGLDAAGMSQADFEAALKDPAVQETLEKWKAAYDVAKIQGVPAYVVNGKYLIYTKNIKSIDSMAELVRELATKK”, the “soluble on expression in E. coli” value was “not soluble”.

Regarding “MSSLTDKTRNGALKRNLLRQMLKASVFKFGEFQLKSGQISPIYIDLRECFGHPGLLMLISEAISKQVEISEVQYAGVLGIPYAALPYASVAAGNYLKKPLLIVRKEAKSYGTKKLIEGLYQPNDRLILIEDVVTTGGSILDVVKVLHTENLVASDVFCILDREQGGRQKLQDAGVTLHSLLDMQTVLTFLYSTGAIGDEQWHGIVQALNLPYTSPTKLEINSELENLSSLPYVENVRTPLAERESLTESALIKKILGIMRRKKSNLCLAVDYTTVEQCLQMIELAGPFVLAIKLHADAITDFNEEFTRKLTTMANDMDFIIFEDRKFGDTGNTNLLQLTGAQKIANWADVVTVHAVQGSDSIAGVFRKLAKDPTYRLSGVLLIAQLSTKGSLTALEGYTETAVKIANENRDVISGFITQTRVSACSDLLNWTPGVNLDAKSDSAGQQWRGVDEAIEVQQNDIIIVGRGVTSSSEPVQQLKRYRQIAWDALTRSDDSI”, the “soluble on expression in E. coli” value is given as “not soluble”.

For the sequence “MSSRKQGSQPRGQQSAEEENFKKPTRSNMQRSKMRGASSGKKTAGPQQKNLEPALPGRWGGRSAENPPSGSVRKTRKNKQKTPGNGDGGSTSEAPQPPRKKRARADPTVESEEAFKNRMEVKVKIPEELKPWLVEDWDLVTRQKQLFQLPAKKNVDAILEEYANCKKSQGNVDNKEYAVNEVVAGIKEYFNVMLGTQLLYKFERPQYAEILLAHPDAPMSQVYGAPHLLRLFVRIGAMLAYTPLDEKSLALLLGYLHDFLKYLAKNSASLFTASDYKVASAEYHRKALLEHHHHHH”, the “soluble on expression in E. coli” value is “not soluble”.

Take “MSSSDAFWRMFANKNKGKSNTRSAFQVVKEEQPSTSTEPDDKKPLHHEIAGEMIKNPAKGKRKRVQIKNDEYEQLMMLGVPVRVPRGLSLYSTQKLMIVRILTALKNSQNVLGESPTGSGKTMALLASTCAWLKQYIDEKRESKEKCEIHGFSGKTQVVFTNDIGIPLESKVYEEPPEEEEFIEPVPVKNDKLFEAQWEHDFTPHTPGETPPVTLKEELEPVKKPEPVETKCTCLPRVRIYYGTRTHKQIAQVVKEFSRLPYAKILKHTILASREQSCINPAARKHADISQYCKEVNSAHSIGCSFKSAMKPRFEKALPLRDHLERNGTVVFDMEKIVETLAISYPQLCPYFSTNRILTQDADIIFCPFSYLVDPLIRNSSDVQIRNSIVILDEAHNIEDTCREAASFSFTEKELDDSILSLRIKRKAVDTELDKTGIEEKLLHIPDREVHLKEFRGHLLYLEHLILEMLRWIRQVSTEAKTPARGGQDGVKTCTISSANLFTSLTDPENGVDLFTPPLTPKHAAVAASFSAITKHNEPEMQYFDAFKPSSTAIVCIEKWLYFQSYFGNQQYQSTYRLNISIEPINQNGRFNHTFDADVSMSTSFGNPRPTTTRSSAGPRNMQYKEENAWLADAAADGDDWKDPSMSETGHKPISEGCKTTISLWCMSPALSFFDAFNETRSIVLASGTLCPMDTLKTELGMEFKQQVEGDQVINKDNIFAAVLPIGPFGNRIQCTYRNTSDPESSFYCELGAIIKYVCSNVPAGILCFLPSYRVLDQLKQCMIRNSTMRQIEMKKVVLYEPRRSSELTSVMDQFDAAIFDPSRFGANINGSLMFAVFRGKVSEGIDFADDRARVVISVGIPYPNAMDDQVNAKKLYNDQNSKEKGILTGDEWYTTQAYRALNQALGRCLRHKNDWGAMLMIDERLERQTGNLVGGASSARVSKWIRAQLKSYPSFKEFNANFREFIQRRHAVEKAKKENFCE”: the “soluble on expression in E. coli” value is “not soluble”.

Regarding “MSSSESPAGIAQIGVTGLAVMGSNIARNFARHGYTVAVHNRSVAKTDALLKEHSSDGKFVRSETIPEFLAALEKPRRVLIMVKAGEATDADAVINELADAMEPGDIIIDGGNALYTDTMRREKAMRERGLHFVGAGISGGEEGALNGPSIMPGGPAESYQSLGPLLEEISAHVDGVPCCTHIGPDGSGHFVKMVHNGIEYSDMQLIGEAYQLMRDGLGLTAPAIADVFTEWNNGDLDSYLVEITAEVLRQTDAKTGKPLVDVIVDRAEQKGTGRWTVKSALDLGVPVTGIAEAVFARALSGSVGQRSAASGLASGKLGEQPADPATFTEDVRQALYASKIVAYAQGFNQIQAGSAEFGWDITPGDLATIWRGGCIIRAKFLNHIKEAFDASPNLASLIVAPYFRGAVESAIDSWRRVVSTAAQLGIPTPGFSSALSYYDALRTARLPAALTQAQRDFFGAHTYGRIDEPGKFHTLWSSDRTEVPV”, the “soluble on expression in E. coli” value is “soluble”.

Take “MSSTKRPASRADEITQELVRMIQLADARRIAKLPTEMELAAQLGISRPVIRESLSRLESLNMVTRRQGSGLYIVAPEKRSPEALVLLEQSAPLSPRSIAEAMSVRAILELETGRLAALNHRQVDLDRMAAEIERLAATGARGLEAAEADEAFHRALSDAAGNVTLSQVLDLFLRLSWRRRVEYFSQPKLGKQSIIEHQEILNAVASGDPDAVSTAIRTHLNSAERFWDSKYVKKKS”: the “soluble on expression in E. coli” value was “not soluble”.

As for “MSSVKDTMTTQVATVSPNQTIQEAASLMKQHNVGAIPVVEQGVLKGMLTDRDIALRTTAQGRDGQTPVSEVMSTELVSGNPNMSLEDASQLMAQHQIRRLPIVDQNNLVGIVALGDLAVNQMSNESAGSALTNISHQNIH”, the “soluble on expression in E. coli” value is “not soluble”.

With “MSTARFADPDQIRAGFSRAMSQMYQHEVPLYGTLMELVSEVNAQVMSRDSQVLNSLRQTGEIQRLDMERHGAIRVGTAQELATLARLFAVMGMQPVGYYDLTAAGVPVHSTAFRAVHEQALQVSPFRVFTSLLRLELIESDSLREFASRVLAKRTIFTPGALALIEKHEADGGLSEPDAAEFIQQALETFRWHHTATVSLDEYRQLNAQHRLIADVVAFRGPHINHLTPRTLDIDAVQSGMPGKGITPKAVVEGPPPRQCPILLRQTSFKALEEPISFIGQGGSQSGSHSARFGEIEQRGAALTPKGRELYDRLLNEARDALGEFPNEANAVRYAGLLEKAFQAFPDSHDEMRAQGLAYFRYFPTDTGVAVRVSGTLEQLIEAGHVRFEPLAYEDFLPVSAAGIFQSNLGDNAQAHYAANSNRQDFERALGRGTLDELALYADTQRRSLEDCAEVLGLNESLEHHHHHH”, the “soluble on expression in E. coli” value is listed as “not soluble”.

As to “MSTDAFYSTAFPTIPGTPNLLGYTAYSPQSIFNDSRPASSVNNTPSTSFNSSIHSRNRSIAMLHSISHILSNDDSLGSTTESSTPSTPEIHPSNAPAKKTIPLVLISDTDEECDKKSRKRRIRSKSSKKSRGIRKSRKHEASDYRKKIMLGTFEGRKIVLKLMK”, the “soluble on expression in E. coli” value is on record as “not soluble”.

On to “MSTFSLLRLPQKTLKNVILQMGHIELICTSLLSNKTKHFIREFCIFKASRFSIELNQSVQFKMFNNGRWSEYSFKNGMICITSFGIIQITMTFRTPQFNAGSWFNHFLCVLSPSKIESVTVTDAFDELRFQLVKKFLEKIQFMVLWIRTTSATSHMVRLFSEVLPVDQFWLSQDDRLNSSQFSALRPVLSKELETIFIDNRMPLNDLLITCSTAIHIIKSPLTDKEINVFLKHWMTGLKPELEHIYIEKSGVFNQTQLLDGINHDAPTDRKFKMYGNDAFRGIDLHLGQGIKATLVYENDFFHSKIHIASHNSKYISFE”, for which the “soluble on expression in E. coli” value was “not soluble”.

With “MSTIAAGRFAKDDVDQDTKWWKEYPSKHYIERARPQNYYDEFVQNAWSKSKRLARAASFTNLTYIKDKDMDFPIRKSDSVSTLAPSLALPQYCREAQRIVHTVPVYKPTVHDWYNKSYSDARWRDTHREINKPYKPLDTYISPASSHVPYYSFQTKRIFFDEKARQLAPYLKESQRYMDRYVSSRLKADDYANRFAYTAYEWRKPQDHSFNREFMTTQGVFVATPTGIPHQHYDKFGMRRLYKRTGRFFF”, the “soluble on expression in E. coli” value is on record as “not soluble”.

As to “MSTIHTPLTYNEINGKPFGLDYELAKQFADYLGVKLKVTVRQNISQLFDDLDNGNADLLAAGLVYNSERVKNYQPGPTYYSVSQQLVYKVGQYRPRTLGNLTAEQLTVAPGHVVVNDLQTLKETKFPELSWKVDDKKGSAELMEDVIEGKLDYTIADSVAISLFQRVHPELAVALDITDEQPVTWFSPLDGDNTLSAALLDFFNEMNEDGTLARIEEKYLGHGDDFDYVDTRTFLRAVDAVLPQLKPLFEKYAEEIDWRLLAAIAYQESHWDAQATSPTGVRGMMMLTKNTAQSLGITDRTDAEQSISGGVRYLQDMMSKVPESVPENERIWFALAAYNMGYAHMLDARALTAKTKGNPDSWADVKQRLPLLSQKPYYSKLTYGYARGHEAYAYVENIRKYQISLVGYLQEKEKQATEAAMQLAQDYPAVSPTELGKEKFPFLSFLSQSSSNYLTHSPSLLFSRKGSEEKQNLEHHHHHH”, the “soluble on expression in E. coli” value is on record as “soluble”.

With “MSTKELEERKVCFFCKILGFLSFPAIKIRIGTPANTISRHLTGFASYCIHLAVGVAHTRPEPELADDSRCYGNILDLVKRKKVTNWTQTRLVVEGKLGEGLRGIAYKVKHRNTMKCLKLLPLSWTSRNKEALEDLVALRSLKTIKKETPNYLTFFDSFVLTNLPASTQDKLNQLDPQCPATHYLGLLVELGSNSLDNTMLTTAVEGLSIVKQLVLSLVIAKRRLDTNHNDVHPGNVLVKRSASPKTLKYTLDGKVIRIPSHGLVVGIIDFSEASFGRANGNSDVGFLSFITEEISKTLSKAENRTFQTAIDGLTDARSITAIYPNASIFKKH”, the “soluble on expression in E. coli” value is listed as “not soluble”.

With “MSTLEIKNLHAQVVPADESAAPKPILKGVNLTIKSGETHAIMGPNGSGKSTLAYTLSGHPRYEVTDGEVLLDGENILDMDIDERARAGLFLAMQYPTEIPGVSMANFLRSAATAVRGEAPKLREWVKEVKQAQQDLKIDKAFNERSVNEGFSGGEKKRHEVLQLDLLQPKFAVMDETDSGLDVDALRIVSEGINRYQEKSNGGILMITHYKRILNYVQPDFVHVFANGQIITSGGPELADDLEANGYDRFLA”, the “soluble on expression in E. coli” value is given as “not soluble”.

On to “MSTLLKSAKSIVPLMDRVLVQRIKAQAKTASGLYLPEKNVEKLNQAEVVAVGPGFTDANGNKVVPQVKVGDQVLIPQFGGSTIKLGNDDEVILFRDAEILAKIAKD”, for which the “soluble on expression in E. coli” value is “not soluble”.
